According to patent US8603473B2:

Molecular target: bovine submaxillary mucin, a source of the TAG-72 antigen (bovine)
Experiment: binding activity of the Chx-DTPA conjugate; assay not given

avidity against conjugated control parent huCC49: 5 to 6 fold
Substance: HuCC49 CH2 domain-deleted sc(Fv)2 tetravalent antibody conjugated with the chelator Chx-DTPA
